Reference: patent publication US20210277118A1 (Daiichi Sankyo, published 2021)

How the values were obtained:
[1] = target: T1, human CD3 epsilon/delta expressed on transfected cells (hCD3epsilon-pcDNA3.1 and hCD3delta-pcDNA3.1 in … (human, UniProt P07766 23-207; P04234 22-171); assay: cell ELISA and flow cytometry on transfected cells, hybridoma supernatant
T1 construct: whole, on cells

[2] = target: T2, monkey CD3 epsilon/delta expressed on transfected Lenti-X293T cells (cynoCD3epsilon-pcDNA3.1 and … (monkey, UniProt Q95LI5 22-198; Q95LI8 22-171); assay: flow cytometry on transfected Lenti-X293T cells, hybridoma supernatant
T2 construct: whole, on cells
Experimental: Flow cytometry analysis of binding activity to monkey CD3. The monkey CD3 binding specificity of the antibody produced by each hybridoma determined to produce the antibody binding to human CD3 was further confirmed by flow cytometry. Each Lenti-X293T cell suspension was added at a concentration of 100 μL/well to a 96-well U-bottomed microplate and centrifuged to remove a supernatant. The cynoCD3c-pcDNA3.1- and cynoCD3δ-pcDNA3.1-transfected Lenti-X293T cells or the pcDNA3.1-DEST-transfected Lenti-X293T cells were suspended by the addition of the hybridoma culture supernatant and left standing at 4° C. for 1 hour. The cells were washed once with PBS containing 5% FBS, then suspended by the addition of Anti-Rat IgG FITC conjugate diluted 500-fold with PBS containing 5% FBS, and left standing at 4° C. for 30 minutes. The cells were washed twice with PBS containing 5% FBS and then resuspended in PBS containing 5% FBS and 2 μg/ml 7-aminoactinomycin D, followed by detection using a flow cytometer. The data was analyzed using Flowjo. After removal of 7-aminoactinomycin D-positive dead cells by gating, the FITC fluorescence intensity of live cells was plotted to a histogram.

T1 sequence (P07766 23-207, stated change not applied, chain 1 of 2): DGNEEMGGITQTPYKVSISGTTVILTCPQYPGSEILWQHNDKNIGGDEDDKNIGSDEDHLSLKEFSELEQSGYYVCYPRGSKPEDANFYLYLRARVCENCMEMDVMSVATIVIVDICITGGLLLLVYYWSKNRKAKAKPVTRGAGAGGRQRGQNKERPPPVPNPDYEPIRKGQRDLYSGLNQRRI
T1 sequence (P04234 22-171, stated change not applied, chain 2 of 2): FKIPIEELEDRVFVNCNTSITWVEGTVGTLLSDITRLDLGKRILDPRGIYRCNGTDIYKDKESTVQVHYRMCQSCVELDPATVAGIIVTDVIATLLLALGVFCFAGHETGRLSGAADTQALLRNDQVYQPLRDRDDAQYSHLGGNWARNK
T2 sequence (Q95LI5 22-198, stated change not applied, chain 1 of 2): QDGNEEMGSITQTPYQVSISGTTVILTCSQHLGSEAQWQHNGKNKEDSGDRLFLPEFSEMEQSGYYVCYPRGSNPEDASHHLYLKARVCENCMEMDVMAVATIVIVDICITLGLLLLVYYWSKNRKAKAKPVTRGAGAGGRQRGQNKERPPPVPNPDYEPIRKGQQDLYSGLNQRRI
T2 sequence (Q95LI8 22-171, stated change not applied, chain 2 of 2): as the sequence (P04234 22-171, stated change not applied, chain 2 of 2) above, with I5V, N15K, I20V, S32T, D33N, I34N, T64A, S74N, V83L, H141R counted along it

binding result [1]: binds | binding result [2]: binds
B1: rat anti-CD3 monoclonal antibody C3-147 (antibody, rat IgG2b, V domains shown)
VH: EVQLVESGGGLVQPGRALKLSCVVSGVTFNYYGMSWIRQAPGKGLEWVASITNSGGRIYYPDSVKGRFTISRENTQKTLYLQMNSLRSEDTATYYCTLDGRDGWVAYWGQGTLVTVSS
VL: QFVLTQPNSVSTNLGTTVELSCKRNTGNIGSNYVNWYQQHEGRSPTTIIYRDDKRPDGVSDRFSGSIDRSSKSALLTINNVQTEDEADYFCQSYSSGFIFGGGTKLTVL
notes: Rat IgG2b with lambda chains (printed 'X chains'); tested as hybridoma culture supernatant
